Measured values reported in patent US4978608.
Read-outs that look alike come from different tables or passages of the source.

What was measured:
[1] = test system: single-stranded DNA binding protein (SSB, BP), immobilized (Escherichia coli); conditions: BP 50 ug/ml adsorbed on nitrocellulose, BSA blocked; sample in 10 mg/ml BSA
[2] = test system: single-stranded DNA binding protein (SSB, BP), immobilized (Escherichia coli); conditions: BP 0.2 mg/ml on Immobilon membrane; 10-1000 pg DNA in 10 mg/ml BSA; 80% captured with BP at 1 mg/ml

## 32P-labeled single-stranded DNA
[1]
  binding signal: 36 % captured
[2]
  binding signal: 70 % captured
